Measurements taken from the DeepSol protein solubility set.

experiment: soluble on expression in E. coli; label from the status in PepcDB or PDB records

| Sequence | soluble on expression in E. coli |
| --- | --- |
| MGSDKIHHHHHHMVRFISNTLSQTLNEPFQQSHKSCKHLYILEILSQVVIVSDQKQVPLQPYDIILAQSFNHLQIDSLDRNPILLRLYSLDFDLPSPLNQYTVGDNPLIHDLMNDHTSEDAYILFTNLSDLICHAYLDALEKLENLRDNNDEQVYIDFQRQKLAGLLFTELLRQHDAKVSKFASRFPSVNVKYASKDSQSGAIMKYVSDNVHHISLKEAAAHFFYQANYFSRLCHELFGISFNQLKTTIRLEIAKEQLRLTTKSVEEISQELGYKAVSNFHRNFKSQTGMTPNDYRQDKQ | not soluble |
| MGSDKIHHHHHHMVRLSEAEVQNPKLGEYQCLADLNLFDSPECTRLATQSASGRHLWVTSNHQNLAVEVYLCEDDYPGWLSLSDFDSLQPATVPYQAATFSESEIKKLLAEVIAFTQKAMQQSNYYLWGGTVGPNYDCSGLMQAAFASVGIWLPRDAYQQEGFTQPITIAELVAGDLVFFGTSQKATHVGLYLADGYYIHSSGKDQGRDGIGIDILSEQGDAVSLSYYQQLRGAGRVFKSYEPQRR | soluble |
| MGSDKIHHHHHHMVSFVHSSDLHLGKSFGTFPEDVRVRLQQARLESLTTLADIARTNGARHVLLAGDTFDKMTPAPKVIRGALNAMREAADVTWWVLPGNHDHVNATELWRTFTSDAPANVHALLRPEPVMLTDGVALLPAPPTERHPGRDLTDWFDDAATGDALRIGLAHGSIRGFSAEDGGASVLSFNRARDAGLAYLGLGDWHGQLQVSENTWYSGAPEADSFKHAMDPSALLVEVDGARVTVTPHPTSRLIWRASEVDLIGDEADLPLPPQDRARTLLKLTLTGRARPAVRRDLEAAFDHAAPDFLWAEAEFDGLDLVHETSDLDQIDRQGALRAAAEALVREADDQALSPEARATADAALSLLFTYAAEA | not soluble |
| MGSDKIHHHHHHMVSHKKNDRPRPLWILKIHKRLSLFEFKRYATGIGKDDGQDISWVLKGNAKNNVYQVTVETMENCETDECKKVIWVPDELAESTGTMFEDFKEDQPQESVSSISNNEANWGSSVNELDENYEKMQKEETFDPYDSDSDTSEDSDFDEDFEDSDKTMCSGQS | not soluble |
| MGSDKIHHHHHHMVSKMTNQRVLTVPGGINFRELGGYSTKDGRKIKWHKVIRTGGLDQLTPTGQALLDDYGVRYDIDFRSPQEVLDAPDRIPANAKYVYAPVFNVDETRNSDGTDKMTANLEKHPDSGFKHMLKVYQMVADEQHAKDEYRRFFDNLLANDQPDSTLLFHCTAGKDRTGMGAVYLLTALGVDFETIKQDYLLTNQASIGRINGAMAEARAQGASDATVESIRALWSVDADYLDAAMTEIKRQSGNLNHYLHTELKLTNNEINDLQRIYLE | not soluble |
| MGSDKIHHHHHHMVTETYINKLLAPIRRRITGMLTRAVVSGIVEDLQRQNLQVKMHADESADNIERFQNYGMSSYPPEGAEAIVAALGGALSGLVAIAVEDKKFRPKGESGDVFLYHLEGHKIRLTKDGKIILTAQDVIFEIENSFTISTTDVIFNASGSFTIISPETLIDGPLHVTGDISTDLGITAVNGITSNSVITGSDLSANNISYLGHIHKDAENRPTTAPE | not soluble |
| MGSDKIHHHHHHMVTHWLPDLSTAEGPLYIRIADRAEADIKTGRLSSGAKLPPQRDLAFDLKVTIGTITRAYALLRERGLVTGEVGRGTYVQSSLAESETDIHRDPVTLTYGGTRTLSPPPGKLRFDTTAAIDVGQADIIGRLMTDIARDQPDEIASYTRTLLPDWLEAGRRWLSNGDWSPEAANIVPQMGVHAGVNAVIAAISGTGDRIVCEHLTYSQIARSASLMGRQIALVDSDHDGIMPEDFERVCAREHPKAAFIMSSGQNPTLSCLPLSRRLEIIDIARRYNVWLIEDYIYGALVDDGIPLLAQLAPDRTFLLNSLSKSVAAGVRGGWVACPDHMSQRVRVTQKMVCGGLPFLLAELSARLVLSGAADDIRGRVLEELSAREQIVRQLFEGYEFRSHPRLPYFWLKLPEPWLSGTFKQAALDQGVLIDDEDEFKPARSSRVFHHIRAGFSEGRDRSIAEGGLITLRRILDQIPVGSNAVM | not soluble |
| MGSDKIHHHHHHMVTQMLEGKKVAILVETEFIPEEIAAYRQHFEELGATVHFMSRLWGNETVQFVSDVDEIGKSLQYLDVNIDFQSVDVNEYAAVIMAANYTSVRLRYFQPPPGQQISPEQTRTAPAIQFFAQAMANHKIIKGLLCHGLWLLTPMPELLRGRKVICHEVVLADIANAGAVYVPPPVNSQPNDPGNIVVDRDLVTGRAGHDVYAFIDAIAHQIASQEQRCLETQRR | not soluble |
